Substrate in data set [1]: O=c1ccn([C@@H]2O[C@H](CO[P@@](=O)(O)O[P@@](=O)(O)O[C@H]3O[C@H](CO)[C@@H](O)[C@H](O)[C@H]3O)[C@@H](O)[C@H]2O)c(=O)[nH]1
In words: purified protein. Conditions: details in supplement Table S2.

Substrate in data set [2]: O=c1ccn([C@@H]2O[C@H](COP(=O)(O)OP(=O)(O)O[C@H]3OC[C@@H](O)[C@H](O)[C@H]3O)[C@@H](O)[C@H]2O)c(=O)[nH]1
In words: purified protein. As to conditions: acceptor astragaloside III (5); details in supplement Table S2.

B1: AmUGT13 (Astragalus mongholicus) (protein)
chain: MEREAENRPLKLYFLPFLAAGHMIPLCDIAMLFASRGQDVTVITTPSNAETLLKRKSNNHLHIHTVDIPSDSPQIENITSATNIDSAISVYTAAMLLRQPVEQFLRENPPDCIVADFMYQWVSEIANTLQIPRLAFNGFPLFAVCAMNSFSAHPELFSGSVSEPFNLPDLPHPITMHARSPEGIFRFYEALLKMEVESHGLIVNSFVEIESEYVEHYERTTGHKAWHLGPASLVHASNQQKSERGHISVVSENDCVSWLNSKQPNSVVYISFGSTCRFSDNQLYEIAAGVEASGHPFIWVVLEKLEEKGSKGWLPEGFEERMKEKGMIIRGWAPQVLILDHPAIGGFLTHCGWNSVVEGVSAGVPMMTWPVQADQFYNEKLITEVQGNGVEVGAVEWGVSGYGERKIVISREKIEKAVRRVMDGGDEAEEIRRRARQLAVKAKEAVREGGSSHRNLRELIRDLKLLRDSRSAN
As to B1, the Km in the data set “purified protein [1]” (acceptor astragaloside III (5)) turned out to be 414.7 µmol/L; in “purified protein [2]” it was 479.6 µmol/L.

B2: AmUGT7 (Astragalus mongholicus) (protein)
chain: MESQQSHEQLNVTFLPYPTPGHMIPMIDTARLFAKHGATVTIITTHANASTFQKHIDSDISLGYPIKTQLIQFPAAQVGLPDGVENVKDGSSLELLGKISQGIFLLQGQIELLFQHLQPDCIVTDMMYPWTVESAAKLGIPRLHYYSTSYFSNCASYFVRKYRPHDSLDSDDQKFTVPCLPISIEMTPLQLPEWIRTKNPSTGGFFEAMYESEKNSYGTLYNSFHELESDYEQLNKTTMGIKSWSVGPVSAWANKDDEKKANRGHMGESGKELEWLNWLNSKQNDSVLYVSFGSLTRLPNAQLLEIAHGLEISGHNFIWVIRKNDRDEDGDNFLQEFEQRMKESKKGYIIWNWAPQLLILDQPAVGGIVTHCGWNSILESINAGLPMIAWPMFAEQFYNERLLVDVLKIGVPVGVKENKYWFNIGEETLVRREEIMKAVVLLMGSSQESKEMRLKAKKLADASKRTIEEGGHSYNNLLQLIDELKSLKISRELDKSRLDN
Consider B2, for which the Km in the data set “purified protein [1]” (acceptor cycloastragenol-3-O-β-D-xyloside (2)) was determined as 74.8 µmol/L.

The term Km denotes the concentration of substrate that gives half-maximal velocity.

For the origin of these results see paper PMC9939298.
